Patent US20230391872A1 (ANAPTYSBIO, published 2023)

Assays:
[1] = biological target: T1, cynomolgus monkey BTLA on cells (stably transfected 293c18 clone 1G5); cynomolgus peripheral blood T and B … (cynomolgus monkey, UniProt A0A2K5W7M7 31-289); assay: flow cytometry, AF647-labeled 6G3 IgG4 on cynomolgus monkey peripheral blood CD3+ T cells; not saturated at 100 nM
T1 construct: whole, on cells; also called cynomolgus monkey BTLA 293c18 cells
T1 sequence: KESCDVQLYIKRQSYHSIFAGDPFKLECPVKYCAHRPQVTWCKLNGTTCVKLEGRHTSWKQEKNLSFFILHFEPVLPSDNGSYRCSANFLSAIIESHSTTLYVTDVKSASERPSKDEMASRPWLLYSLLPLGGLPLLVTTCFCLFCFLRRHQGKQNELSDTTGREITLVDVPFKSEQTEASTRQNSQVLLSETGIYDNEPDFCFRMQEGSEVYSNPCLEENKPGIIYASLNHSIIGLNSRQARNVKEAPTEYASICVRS
Method: Blood was then aliquoted into wells and incubated with the indicated concentrations of 6G3-AF647 (APE13766.02), or APC-Mouse Anti-Human CD272 (BTLA) reference antibody (clone J168-540; BD Biosciences) for minutes at room temperature, in the dark. Following incubation, red blood cells were lysed for minutes by addition of 2.0 ml diluted BD Pharm Lyse lysing solution (BD Biosciences), samples centrifuged at 200×g for 5 minutes, washed in FACS Buffer [Dulbecco's PBS, no calcium, no magnesium (Gibco/ThermoFisher Scientific), 25 mM HEPES, pH 7.2, 0.1% BSA, sodium azide] and fixed in 4% paraformaldehyde (200 μl/sample) for 10 minutes at room temperature. Samples were washed twice in FACS Buffer and analyzed for fluorescence on a NovoCyte Quanteon flow cytometer (ACEA Biosciences, Inc.). Data were analyzed using NovoExpress Software (ACEA Biosciences, Inc.). Mean fluorescence intensity (MFI) values were graphed and fit with nonlinear regression analyses in GraphPad Prism (GraphPad Software, Inc.). MFI values for each anti-BTLA antibody on total CD3+cells are shown in FIG. 5A; MFI values for each anti-BTLA antibody on total CD20+cells are shown in FIG. 5B. […] Binding of each anti-BTLA antibody to CD3⁻ cells in FIG. 5C and FIG. 5D (green cells in the bottom quadrants of each panel) reflects the binding to CD20⁺ B cells. […]

[2] = biological target: T2, human BTLA on cells (stably transfected 293c18 cells; human peripheral blood T and B cells) (human, UniProt Q7Z6A9 31-289); assay: competition flow cytometry on 293c18 cells with human BTLA; increase of the binding of DyLight 650-HVEM-Fc (100 nM) with the antibody concentration [panel A]
T2 construct: whole, on cells; the cells are named under assay; also called cell surface BTLA; full-length human BTLA
Method: 293c18 cells, clone 1E4 stably expressing human BTLA were harvested with Accutase solution (Millipore Sigma/Sigma-Aldrich) and washed once with PBS, 1% BSA. Cells were plated at 2×10⁵ /well in U-bottom 96-well plates and placed on ice. Purified antibodies at twice the indicated concentrations were serially diluted 3-fold in FACS buffer (PBS, 1% BSA, 0.02% sodium azide). Antibodies tested were human IgG4 isotype control antibody specific for hen egg lysozyme, a reference BTLA IgG4 antagonist antibody, and 6G3 IgG4 (APE10840.06). Trimeric HVEM/LIGHT complexes were pre-formed by mixing equimolar (60 nM each) amounts of DyLight 650-HVEM human IgG1 Fc and trimeric LIGHT-foldon-his and pre-incubating for 15 minutes at room temperature. Either DyLight 650-HVEM-Fc (final concentration 100 nM; FIG. 6A) or pre-formed DyLight 650-HVEM/LIGHT complexes (final concentration of HVEM/LIGHT, 30 nM each; FIG. 6B) were added to the diluted antibodies (final concentrations of antibodies as indicated) and incubated for 15 minutes on ice. […] Cells were washed once, resuspended in FACS buffer and analyzed for fluorescence on a BD FACSArray (BD Biosciences). Median fluorescence intensities (MFI) were graphed in GraphPad Prism (GraphPad Software, Inc.) and curves fit with log(agonist) vs. response (three parameters) least squares fit. […]

B1: 6G3 IgG4 anti-BTLA antibody (APE10840 / APE12839 / APE13308) (antibody, V domains shown)
VH: QVQLVQSGAEVKKPGSSVKVSCKASGYVFSTSWMNWVRQAPGQGLEWMGRIYPGDADTNYVGKFKGRVTITADKSTTTAYMELSSLRSEDTAVYFCAKSGTFNFGNYRWYFDVWGKGTTVTVSS
VL: AIQLTQSPSSLSASVGDRVTITCRVSENIYSHLAWYQQKPGKAPKLLIYAATNLALGVPSRFSGSGSGTDYTLTISSLQPEDFATYYCQLFWGPPLTFGGGTKVEIKR
notes: Humanized antibody from a mouse hybridoma, tested as human IgG4 (detected with anti-human kappa); Some assays used labelled lots (DyLight 650, AF647, biotin, DyL488); also called 6G3 antibody; APE10840.03
EC50 [1]: ~3.4 nM
EC50 (read off the curve) [2]: ~0.7 nM
